Source: the nanobody polyreactivity screen of Harvey et al. (2022)

Experiment: yeast display, Sf9 membrane polyspecificity reagent, FACS + sequencing; frameworks hold sequencing errors
Outline: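 Sorting gates, low and high (top ~1%), were placed on anti-HA fluorescence to track expression and on streptavidin fluorescence to track reagent binding. A clone's polyreactivity label is taken from the gate it came out of. The reagent was 10% biotinylated, detergent-solubilized Sf9 membrane, applied for 1 hour at 4 °C to galactose-induced yeast display cells.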

Row | Sequence | polyreactivity (PSR sort gate)
1 | QVHLVESGGGLVQAGGSLRLSCAASGLTFPSNAMGWYRQAPGKERELVAAISKRGGRTYYADSVKGRFTISRDNAKNSVYLQMNSLKPEDTAVYYFATPYAYPGTVQYAGYNYWGQGTQVTVSS | high polyreactivity
2 | QVQLVESGGGLVQAGGILRISSDSSGSIFTFYAMGCYRQEPGKERELFAAISYGGGITYYADSVKGRFSISRDNAKNTVYLQMNSLKPEDTAVFYCAGDDGYYNLYFDYDYWGQGTQVTVSS | low polyreactivity
3 | QVQLVESGGGLVQAGGSLRLTCAASGLTFLVYALGWYRQEPGKEWEFVATISKSGGRTYYADSVKGRFTISRDNAKNTVYVQMNSLKPEHTAVDYCAAKGYPYGRLWCGYYRYDYWGQGTQVTVSS | high polyreactivity
4 | QVQLVESGGGLVQAGGSLRLSCAASGIILYGYARGWYRPAPGKESELVAAISRRGGITYYADTVKARYTISRDNAKNSVYLQMNSLKPEDTAVYYCAADINRRPSYHPDYEYWGQGTQVTVSS | high polyreactivity
5 | QVQLVESGGGIVQAGGSLRLSFDASGFLFYSYAMGCYRQAPGKEREFVAAISWSGARTYYPDSVKGRFTISRDNAKNTVYLQMNSLKPEDTAVYYCIAVAFYPRSSRSWRLDYWGQGTQVTVSS | high polyreactivity
6 | QVQLVESGGGLVQAGGSLRLSCAASGSTFYFYAMGWYRQAPGKERELVAAITGSGGSTYYADSVKGRFTISRDNAKNTVYLQMNSLKPEDTAVYYCAARFSYWKTKRAYDWGQGTQVTVSS | high polyreactivity
7 | QVQLVESGGRLVQAGGSLRLSCAASGFTFPVYAMGWYRQAPGKERELVAVIRLTGGRTYYADSVKGRFTISRDNAKNTVYLQMNSLKPVDTAVYYCAAGSRSGYGYWGQGTQVTVSS | high polyreactivity
8 | QDQLVESGGGLVQAGGSLRLSCAASGIIFQYYAMGWYRQAPGKERELVAAISWSGGSTYYADSVKGRFTISRDNAKNTVYLQMNSLKPEDTAVYYCAARSRSYWPYEGDYWGQGTQVTVSS | low polyreactivity
9 | QVQLVESGGGLVQAGGSLRLSCAASGFIFRRNAMGWYRQAPGKERELVATISSGVGTYYADSVKGRFTISRDNAKNTVYLQMNSLKPEDTAVYYCATLVHYLYTGYRAYYSYRLDYWGQGTQVTVSS | high polyreactivity
10 | QVRLVESGGGLVQAGGSLRLSCAASGSTFKTYAMGWYRQAPGIERELVAAISAGGGSTYYADSVKGRFTISRDNAKNTVYLQMNSLKPEDTAVYYCAAAYIYAGWDYEYGGQGTQVTVSS | low polyreactivity
11 | QVQLVESGGGLVQAGGSLRLSCAASGSIFFSYAMGWYRQAPGKERELVAAISTSGGNTYYADSVKGRFTISRDNAKNTVYVQMNSLKPEDTAVYYCNARGSYPPYRSYGYWGQCTQVTVSS | low polyreactivity
12 | QVQLVESGGGLVQAGGSLRLSCAASGFTVYGYTMGWYREAPGKERELVAAITSGDSTYYADSVKGRVTISRDIAQNTDYLQMHTLKPEETAVYYCATDWDVEYAWTEYYYWGQGTQVTVSS | high polyreactivity
13 | QVQLVESGGGLVQAGGSLRLSCAASGSILTRNAMGWYRQAPGKERELVAAISYSGVRTYYADSVKGRFTISRDNAKNTVYLQMNSLKPEDTAVYYCNAVISSRYDYWGQGTQVTVSS | high polyreactivity
14 | QVQLVASGGGLVQAGGSLRLSCAASGSIFARYALGWYSQAPGKEREWVAALRWSGGRTYYADSVKGRFTISRDNAKNTVYLQMNSLKPEDTAVDYCNAVIHRLGKTYGTNRVDYWGQGTQVTVSS | high polyreactivity
15 | QVQLVESGGGLVQAGGSLRLSCAASGSTFPDYVMGRYRQAPGKERELVAAFSSIGGSTYYADSVKGRFTISRDNAKNTVYLQMNCLKPEDTAVYYCAAENSYFYPFDYWGQGTQVTVSS | low polyreactivity
16 | QVQLVESGGGLVQAGGSLRLSCAASGFTFYRNAMGWYRQAPGKERELVAGISKRGGSTYYADSVKGRFTISRDNAKNTVYLLMNSLKPEDTAVYYCARGGYPGSAEYDYWGQGTQVTVSS | high polyreactivity
17 | QVQLGESGGGLVQAGGSLRLICAASGSTTPGNAMGWYRQAPGKQREFDADINSGGGTNYADSVKGRFTISRDNAKNNVYLQMNSLKPEDTAVYYCAKGYRRSFIGYWYLKYGYWGQGTQVTVSS | high polyreactivity
18 | QVQLVESGGGLVQAGGSLRLTCAASGFIFTYYAMGWYRQAPGKERELVAAISSSGGRTAYADSVKGRYTISRDNAKNTVYLQMNSLKPEDTAVYYCAARIRASGGKDGYNSWGQGTQVTVSS | high polyreactivity
19 | QVQLVESGGVLVQAGGSLRLSCASSGSIFYIYGMGWSRQAPWKERELVARISSGDRTNYADSVKGRFTISRDNAKNRVYLQMNSRNPDDTAVYYCAAKKRKIAGVGGDYWGQGTQVTVSS | high polyreactivity
20 | QVQLVESGGGLVQAGGSLRLSCAASGRTFFYYTMGWYRQAPGKERELVAAISRSGGSTYYADSVKGRFTITRDKAKNTVYLQMNSLKPEDTAVYYCAADRSRNFDWGQGTQVTVSS | high polyreactivity
21 | QGQLVESGGGLVQAGGSLRLSSAASGSTFARYAMGWYRQAPGKERELVAVIRSGGSTNYADSVKGRFTISRDNAKNTVYLQMNSLKPEDTAGAADLWTLHRWATYGYWGQGTQVTVSS | low polyreactivity
22 | QVQLVESGGGLVQAGGSLRLSCAASGLIFPANAMGWYRPAPGKERELVAAISWRGSSTYYADSVKGRFTISRDNAKNTVYLQMNSLKPEDTAVYYCNVYVRSGSLRDIGYKYDYWGQGTQVTVSS | high polyreactivity

Row | Sequence | polyreactivity (PSR sort gate)
23 | QVQLVESGGGLVQARVSLRLSSAASGFIIYPYVMGWYRQAPGKERELVATIRTDGRTSYADSVKGRFTISRDNAKNTFYLQMNSLKPEDTAVYYCDARSPLYYIVPYELVQYDYWGLGTQVTVSS | high polyreactivity
24 | QVQLVESGGGLVQAGGSLRLSCAASGITFYLNAMGWYRQAPGKERELVADITVSGGSTYYADSVKGRFTISRDNAKNTVYLQMNSLKREDTAVYYCAADLTISYSQEYYYWGQGTQVTVSS | low polyreactivity
25 | QVQLVESGGGLVQAGGSLRLSCAASGRTFKYNAMGWYRQAPGKERELVATITRSGGSTYADSVKGRFTISRDNAKNTVYLQMNSLKPEDTAVYYCNLFHVTKDYKTYPQSRYDYWGQGTQVTVSS | high polyreactivity
26 | QVQLVESVGGLVQAGGSHRLSCAASGSIFGYYTMGWYRQAPGKERELVAAITYSGGSTYYADSVKGRFTISRDNAKNTVYLQMNSLKPEDTAVYYCNAKSAAHRYVRRHDYWGLGTQVTVSS | low polyreactivity
27 | QVQLVESGGGLVHAGGRLRLSCAASGRTFGPYVMGWYRQSPGKERELVASISSADSTYYADSVKVRFTFSRDNAKNTFYLQMNSLKPEDTAVYYCAAEWYDYLYRMDYWGQGTQVTVSS | low polyreactivity
28 | QDQLVETGGGLVQAGGSLRISCADSGFTFGVNAMGWYREAPGKERELVAVITSGGNTYYADSVKGRFTISRDNAKNTDYCQMNSLKPEDTAVYYCAAYGRDSWDRDYWGQGTQVTVSS | low polyreactivity
29 | QVQLVESGGGLVQAGGSLRLSCAATGLILGRNAMGWYRQAPGKERELVAAITGSGSTNYADSVKGRFTISRDNAKNTVYLQMNSLKPEDTAVYYCAADVRLDPTGLDYLDYDYWGQGTQVTVSS | low polyreactivity
30 | QVQLVESGGGFDQARCSLRLSCPACASILREYAMGWYRQAPGKERELVATISRDGSTNYADSVKGRFTISRDNAKNTVYLQMNSLKPEDTAVYYCNTDLTYPYPNVEVLVYGFKLDYWGQGTQVTVSS | low polyreactivity
31 | QVQLVESGGGLVQAGGSLRLSCAASGSIFHSYAQGWYRQAPGKERELVASITASGDSTYYADSVKGRFTISRDNAKNTVYLQMNSLKPEDTAVYYCNTQAVYGGGEGGYDYWGQGTQVTVSS | low polyreactivity
32 | QVQLVESGGGLVQAGGSLRLSCAASGRIFSVYDMGWYRQAPGKERELVAAISWSGGTTYYADSVKGRFTISRDNAKNTVYLQMNSLKPEDTAVYYCAARSRSRYDYWGQGTQVTVSS | high polyreactivity
33 | QVQLVESGGGLVQAGGSLRLSCAASGITFLRNTMGWYRQAPGKERELVAAISRCGSTYYADSVKGRFTISRDNAKNTVYLQMNSLKPEDTAVYYCNAPSYVQATDYDYWGQGTQVTVSS | high polyreactivity
34 | QVQLVESGGGLVQAGGSLRLSCAASGGTFQQHAMGWYRKAPGTERELVAAISRSGGNTYYADSVKGRFTISRDNSKNTVYFQMNSLKPEDTAVYSCAVVSSSQYSRYTSQWKEYYWGKGTQVTVSS | low polyreactivity
35 | QVQLVESGGGLVQAGGSLRLSCAASGFTFRWYAMGWYRQAPGKERELVAAISVSGGSTSYADSVKGRFTISRDNAKNTVYLQMNSLKPEDTAVYYCAAVRWAGYVSDYGYWGQGTQVTVSS | high polyreactivity
36 | QVQLVESRGGLVQAGGSLRLSCPDSGSNLLSYAMGWYRQAPGKERELVAAITTRDGSTYYADSVKGRFTISRDNAKYTVYLQMTSLKPEDTAVYYCNVDARSSYDYWGQGTQVTVSS | low polyreactivity
37 | QVQLVESGGGIVQEGGSLRLSCAASGRTFNRYAMGWYRQAPGKERELVAAISWSGGRTYYADSVKGRFTISRDNAKNTVYLQMNSLIPEGTAVYYCAKEAYIRYDYWGQGTQVTVSS | low polyreactivity
38 | QVQRVESGGGLVQAGGSLRLSCAASGGTFPQYAMGWDRQSHGKETEFVADITSRGGTTYYADSVKGRFTISRDNAKNTVYLQMNSLKPEDTAVNYCAADNPADWWGLDYWGQGTQVTVSS | low polyreactivity
39 | QVQLVESGGGLVQAGCSLRLSCAASGGTFYANAKGRYRQAPGIVRELVAAITSGGSTNYADSVKGRFTISRDNAKNTVYLEINSLKPEDTAVYYCNASAQRRYWHSYFRRYDYWGQGTQVTVSS | low polyreactivity
40 | QVQLVESGGGLVQAGGSLRVSCAASGFTFPWYAMGWYRPAPGKERELVASISYRGDSTYYADSVKGRFTISRDNAKITVYLQMNSLKPEDTSVYYCNKRLDSYYLPGFDYWGQGTQVTVSS | low polyreactivity
41 | QVLLVESGGGLDHAGGSLPLSCAASGFTFGDNAMGWYRQAPGKERELVAAITSTGGSTNYADSVKGRFTISRDNAKYTVYLQMNSLKPDDTAVYYCAAEWLYRHDGGYPRPMDYWGQGTQVTVSS | low polyreactivity
42 | QVQLVESGGGLVQAGGSLRLSCAASGFTFDSYAMGWYRQAPGKERELVAAITWSGGSTYYADSVKGRFTISRDNAKNTVYLQMMSLKPEDTAVYYCNVYRYDGDYWGQGTQVTVSS | high polyreactivity
43 | QVQLVESGGGLVQAGGSLRLSCAASGFIFPYYAMGLYRQAPGKEREMVAAITFSATRTYYADSVKGRFTISRDNAKNTVYLQMNSLKPEDTADYYCKARGGVYGSYFEFNYWGQGSQVTVSS | low polyreactivity
